The values below come from patent publication US20020110800A1, “Use of SHP-1 and SHP-2 to detect compounds involved in neuronal survival” (McGill University, priority 1997, published 2002).

The subject of experiment [1] is SHP-1. Put plainly: NGF-stimulated tyrosine phosphorylation of SHP-1 (immunoprecipitation with anti-SHP-1, anti-pTyr blot). It counts as cell-based. Particulars: PC12 cells; increased at 10 minutes, still elevated at 30 minutes of neurotrophin treatment. Here is the method:
FIG. 2 is a Western blot showing that NGF stimulates tyrosine phosphorylation of SHP-1 in PC12 cells. Lysates prepared from cells treated with NGF were immunoprecipitated with anti-SHP-1 and probed with an anti-phosphotyrosine (pTyr) antibody (top panel).
(§1) Immunoprecipitations and immunoblotting were performed as previously described (Kaplan et al., Science, 252:554-558, 1991). Briefly, after two washes with ice-cold Tris-buffered saline, cells were lysed in 1 ml of 1% Nonidet P-40 (NP-40 lysis buffer (20 mM Tris [pH8.0], 137 mM NaCl, 0.5 mM EDTA, 10% glycerol, 1 mM phenylmethylsulphonyl fluoride, 0.15 U/ml aprotinin, 20 μM leupeptin, 1 mM sodium vanadate) at 4° C. for 20 min. Insoluble material was removed by centrifugation at 4° C. for 10 min at 10,000× g. Immunoprecipitations were performed for 4-6 hr at 4° C. Precipitates were collected with protein A-Sepharose, then washed three times with NP-40 lysis buffer and once with water. The immunoprecipitates were boiled in sample buffer (2% SDS, 100 mM dithiothreitol, 10% glycerol, 0.25% bromophenol blue) for 5 min and electrophoretically fractionated by SDS-PAGE. Protein blots were probed overnight at 4° C. with antibody. […]

For experiment [2], the system named is SHP-2. Put plainly: NGF-stimulated association of SHP-2 with tyrosine-phosphorylated proteins in PC12 cells. It counts as cell-based. Particulars: proteins of 50 to 125 kDa. Here is the method:
FIG. 3 is a Western blot showing that NGF stimulates the association of SHP-2 with tyrosine-phosphorylated proteins in PC12 cells. Lysates prepared from PC12 cells treated with NGF for the indicated times were immunoprecipitated with anti-SHP-2 and probed with anti-pTyr antibodies.
as §1

The subject of experiment [3] is SHP-2. Put plainly: NGF-stimulated association of SHP-2 with tyrosine-phosphorylated proteins in SCG neurons. It counts as cell-based, rat. Particulars: NGF-treated SCG cultures. An excerpt:
FIG. 4 is a Western blot showing that NGF stimulates an increased association of tyrosine-phosphorylated proteins with SHP-2 in SCG neurons. Lysates prepared from neurotrophin-treated SCGs were immunoprecipitated with anti-SHP-2 antibody and immunoblotted with anti-pTyr. Lanes 1 and 2: NGF-stimulated association of tyrosine-phosphorylated proteins with SHP-2. Lanes 3 and 4: NGF-stimulated increase in tyrosine phosphorylation of SCG proteins.
To determine the mechanism whereby the neutrotrophins stimulate the survival and growth of normal and injured neurons, we have asked whether the phosphoprotein phosphatases SHP-1 and SHP-2 play a role in the differentiation and survival of primary neurons, focusing our studies on cultured rat sympathetic cervical ganglion (SCG) and cortical neurons in order to determine the exact nature of this regulation.
Immunoprecipitations and immunoblotting were performed as previously described (Kaplan et al., Science, 252:554-558, 1991). […]

Experiment [4] concerns the target T1, TrkA (Homo sapiens, UniProt P04629).
T1 construct: expressed in transfected cells; host or cells: Sf9 insect cells infected with recombinant baculoviruses
Put plainly: In vitro association of SHP with baculovirus-expressed TrkA. It counts as binding. Particulars: autophosphorylated TrkA, insect cells. Here is the method: (§2) FIG. 7 is a Western blot showing that SHP-1 associates with baculovirus-expressed TrkA, TrkB and TrkC. TrkA, B and C were activated and autophosphorylated in vitro, incubated with PC12 cell lysates, fractionated by electrophoresis, and probed with anti-SHP-1 (bottom panel), and anti-pan Trk antibodies (upper panel).
Wild-type and mutant TrkA receptors expressed in Sf9 cells were autophosphorylated, incubated with PC12 lysates and immunoblotted with anti-SHP-2.
The in vitro association assay using baculovirus-expressed proteins was performed as described (Kaplan et al., supra). Briefly, Sf9 cells (2×10^6) were infected, harvested, and lysed in NP-40 lysis buffer. Trk proteins were immunoprecipitated with anti-Trk (203) antibody, and the immunoprecipitates were washed once with lysis buffer containing 1% deoxycholate and 0.1% SDS (RIPA), and three times with 50 mM Tris (pH 7.4). Trks then were activated (i.e. autophosphorylated) by incubation with 50 mM Tris (pH 7.4), 5 mM Mn Cl2, 1 mM ATP and 200 μM orthovanadate. Trk proteins then were washed twice with NP40 lysis buffer and were resuspended in 1 ml of PC12 cell lysate. The immunoprecipitated, activated Trk complexes were incubated with the cell lysate for 3 hr at 4° C., and then washed three times with NP-40 lysis buffer and once with 10 mM Tris (pH 7.4) before immunoblot analysis. […]

Experiment [5] concerns the target T2, TrkB (Homo sapiens, UniProt Q16620).
T2 construct: made in house; host or cells: Sf9 insect cells (recombinant baculovirus)
Put plainly: In vitro association of SHP with baculovirus-expressed TrkB. Particulars: autophosphorylated TrkB, insect cells. It counts as binding. Here is the method:
as §2
(§3) The in vitro association assay using baculovirus-expressed proteins was performed as described (Kaplan et al., supra). Briefly, Sf9 cells (2×10^6) were infected, harvested, and lysed in NP-40 lysis buffer. Trk proteins were immunoprecipitated with anti-Trk (203) antibody, and the immunoprecipitates were washed once with lysis buffer containing 1% deoxycholate and 0.1% SDS (RIPA), and three times with 50 mM Tris (pH 7.4). Trks then were activated (i.e. autophosphorylated) by incubation with 50 mM Tris (pH 7.4), 5 mM Mn Cl2, 1 mM ATP and 200 μM orthovanadate. Trk proteins then were washed twice with NP40 lysis buffer and were resuspended in 1 ml of PC12 cell lysate. The immunoprecipitated, activated Trk complexes were incubated with the cell lysate for 3 hr at 4° C., and then washed three times with NP-40 lysis buffer and once with 10 mM Tris (pH 7.4) before immunoblot analysis.
(§4) To investigate the mechanism whereby SHP inhibits NGF-induced signaling responses, we first asked whether the SHPs bound to Trk. […]

Experiment [6] concerns the target T3, TrkC (Homo sapiens, UniProt Q16288).
T3 construct: made in house; host or cells: Sf9 insect cells (recombinant baculovirus)
Put plainly: In vitro association of SHP with baculovirus-expressed TrkC. It counts as binding. Particulars: autophosphorylated TrkC, insect cells. Here is the method: as §2, §3, §4

The target in experiment [7] is T4, Trk (Homo sapiens, UniProt P04629).
T4 construct: made in house; host or cells: Sf9 insect cells (recombinant baculovirus)
Put plainly: In vitro dephosphorylation of autophosphorylated 32P-labeled Trk by partially purified SHP. It counts as biochemical. Particulars: 20 minutes at 30° C. Here is the method:
FIG. 10 is an autoradiogram showing that SHP-1 and SHP-2 dephosphorylate Trk in vitro. Trk, SHP-1 and SHP-2 were expressed in Sf9 insect cells and isolated by immunoprecipitation with anti-Trk, anti-SHP-1 or anti-SHP-2 antibody. Immunoprecipitated Trk was autophosphorylated with [y-^32P]ATP and then was incubated with partially purified SHP-1 or SHP-2. Trk phosphorylation levels then were analyzed by SDS/PAGE and autoradiography.
We hypothesized that the suppressive effects of SHP upon NGF-mediated survival might be due to dephosphorylation of the autophosphorylated Trk receptor. Given that SHP-1 can bind to activated Trk and that SHP-2 is activated by Trk (see Example II), we sought to determine whether the SHPs could dephosphorylate TrkA in vitro and in vivo. Trk, SHP-1, and SHP-2 were expressed in Sf9 cells and isolated by immunoprecipitation with anti-Trk, anti-SHP-1, or anti-SHP-2 antibodies. Immunoprecipitated Trk was autophosphorylated by incubating with 10 mM MnCl2, 20 mM Tris pH 7.4 and 2.0 μCi/ml [γ-^32P]-ATP(3000 Ci/mmol) for 30 minutes at room temperature. Activated, radiolabeled Trk then was incubated with partially purified SHP-1 or SHP-2 for 20 minutes at 30° C. In vitro, both SHP-1 and SHP-2 are able to dephosphorylate Trk to a similar extent (FIG. 10) i.e., approximately 5-fold dephosphorylation. […]

Experiment [8] concerns the target T1, TrkA. Put plainly: Trk dephosphorylation on coexpression with SHP in Sf9 insect cells. It counts as cell-based. Particulars: wild-type TrkA coexpressed in insect cells; for dephosphorylation of Trk at the 674/675 sites: phospho-specific anti-Trk antibodies. An excerpt: (§5) FIG. 11 is a Western blot showing that Y490 and Y785 of TrkA are not required for SHP-1 and SHP-2-mediated dephosphorylation of TrkA in vivo. Lysates of Sf9 insect cells coexpressing SHP-1 or SHP-2 wild-type and mutant TrkAs, as indicated, were immunoprecipitated with anti-Trk and probed with anti-pTyr antibody (upper panel) to determine TrkA phosphorylation levels.
(§6) FIG. 12 is a Western blot showing that Y674/Y675 of TrkA are targets of SHP-1 and SHP-2-mediated dephosphorylation. Lysates of Sf9 insect cells co-expressing SHP-1 or SHP-2 and wild-type TrkA using antibodies that specifically recognize these phosphorylated residues. Blots were probed with anti-pan Trk (C,D), anti-SHP-1 (E,F), or anti-SHP2 (G,H) antibodies.
(§7) Sf9 insect cells (2×10^6) were infected with recombinant baculoviruses at a multiplicity of infection of 1 to 10 and lysed at 48 hr postinfection. Sf9 cells were assayed for the expression of the recombinant proteins by immunoblot analysis, as described above. Recombinant baculoviruses were prepared as previously described (Stephens et al., Neuron, 12:691-705, (1994).
(§8) We hypothesized that the suppressive effects of SHP upon NGF-mediated survival might be due to dephosphorylation of the autophosphorylated Trk receptor. Given that SHP-1 can bind to activated Trk and that SHP-2 is activated by Trk (see Example II), we sought to determine whether the SHPs could dephosphorylate TrkA in vitro and in vivo. Trk, SHP-1, and SHP-2 were expressed in Sf9 cells and isolated by immunoprecipitation with anti-Trk, anti-SHP-1, or anti-SHP-2 antibodies. Immunoprecipitated Trk was autophosphorylated by incubating with 10 mM MnCl2, 20 mM Tris pH 7.4 and 2.0 μCi/ml [γ-^32P]-ATP(3000 Ci/mmol) for 30 minutes at room temperature. Activated, radiolabeled Trk then was incubated with partially purified SHP-1 or SHP-2 for 20 minutes at 30° C. In vitro, both SHP-1 and SHP-2 are able to dephosphorylate Trk to a similar extent (FIG. 10) i.e., approximately 5-fold dephosphorylation. Moreover, coexpression of Trk with SHP-1 or SHP-2 in insect cells results in Trk dephosphorylation. In vivo, both SHP-1 and SHP-2 reduce Trk tyrosine phosphorylation, even when the receptors lack tyrosine 490 (Y490F) and/or tyrosine 785 (Y785F) (FIGS. 11 and 12).
(§9) In order to map the sites of dephosphorylation two approaches were taken. First, we asked whether Trks mutated at tyrosines 490 and 785 could be dephosphorylated by SHP-1 or SHP-2 when coexpressed in insect cells (FIG. 11). SHP-1 extensively dephosphorylates (about 8-fold) all of the Trks, both wild-type and mutated, whereas SHP-2 causes a more modest dephosphorylation (about 2-fold). […] To determine whether the two other major tyrosine phosphorylation sites in Trk, Y674 and 675, are substrates of the SHPs, wild-type TrkA and the SHPs were coexpressed in insect cells, and Trk phosphorylation at Y674, Y675 and Y490 was assessed using phospho-specific anti-Trk antibodies directed at tyrosines 674/675 and 490. SHP-1 completely dephosphorylates Trk (about 10-fold) at the 674/675 sites, while SHP-2 partially dephosphorylates Trk (about 2-fold) at these sites. Tyrosine phosphorylation of the Y490 site also is decreased by SHP-1. […] Since SHP-2 expression stimulates sympathetic neuron death (FIG. 6), we conclude that SHP functions by associating with neurotrophin-activated Trk, dephosphorylating the receptor at sites crucial for maintaining Trk activity, and thereby suppressing neuronal survival.

The test system of experiment [9] is TrkA. Described as above. It counts as cell-based. Particulars: coexpressed in insect cells, anti-pTyr blot.
From the text: as §5, §6, §7, §8, §9

T1 sequence (P04629 33-790 isoform P04629-2): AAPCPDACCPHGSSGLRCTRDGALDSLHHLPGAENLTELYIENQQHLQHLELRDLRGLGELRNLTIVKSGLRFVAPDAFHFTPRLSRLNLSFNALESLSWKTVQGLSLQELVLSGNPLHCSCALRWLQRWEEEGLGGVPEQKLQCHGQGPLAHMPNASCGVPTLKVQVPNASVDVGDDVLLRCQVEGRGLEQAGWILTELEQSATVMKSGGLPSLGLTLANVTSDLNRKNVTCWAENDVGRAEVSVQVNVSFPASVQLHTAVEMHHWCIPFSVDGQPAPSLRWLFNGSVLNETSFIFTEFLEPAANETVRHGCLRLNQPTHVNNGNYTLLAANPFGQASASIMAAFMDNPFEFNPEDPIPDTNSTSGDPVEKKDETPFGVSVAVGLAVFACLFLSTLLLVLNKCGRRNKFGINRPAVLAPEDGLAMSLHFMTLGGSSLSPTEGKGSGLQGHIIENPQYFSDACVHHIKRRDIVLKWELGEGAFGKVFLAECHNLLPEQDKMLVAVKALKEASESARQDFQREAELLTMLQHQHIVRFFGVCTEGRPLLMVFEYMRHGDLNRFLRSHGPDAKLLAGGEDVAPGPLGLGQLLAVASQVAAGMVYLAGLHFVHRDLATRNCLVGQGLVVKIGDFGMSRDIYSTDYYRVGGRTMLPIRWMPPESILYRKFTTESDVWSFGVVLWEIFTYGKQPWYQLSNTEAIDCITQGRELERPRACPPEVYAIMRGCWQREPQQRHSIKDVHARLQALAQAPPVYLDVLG
T4 sequence (P04629 33-790 isoform P04629-2 limits assumed): as the sequence (P04629 33-790 isoform P04629-2) above
T2 sequence (Q16620 32-822, species assumed): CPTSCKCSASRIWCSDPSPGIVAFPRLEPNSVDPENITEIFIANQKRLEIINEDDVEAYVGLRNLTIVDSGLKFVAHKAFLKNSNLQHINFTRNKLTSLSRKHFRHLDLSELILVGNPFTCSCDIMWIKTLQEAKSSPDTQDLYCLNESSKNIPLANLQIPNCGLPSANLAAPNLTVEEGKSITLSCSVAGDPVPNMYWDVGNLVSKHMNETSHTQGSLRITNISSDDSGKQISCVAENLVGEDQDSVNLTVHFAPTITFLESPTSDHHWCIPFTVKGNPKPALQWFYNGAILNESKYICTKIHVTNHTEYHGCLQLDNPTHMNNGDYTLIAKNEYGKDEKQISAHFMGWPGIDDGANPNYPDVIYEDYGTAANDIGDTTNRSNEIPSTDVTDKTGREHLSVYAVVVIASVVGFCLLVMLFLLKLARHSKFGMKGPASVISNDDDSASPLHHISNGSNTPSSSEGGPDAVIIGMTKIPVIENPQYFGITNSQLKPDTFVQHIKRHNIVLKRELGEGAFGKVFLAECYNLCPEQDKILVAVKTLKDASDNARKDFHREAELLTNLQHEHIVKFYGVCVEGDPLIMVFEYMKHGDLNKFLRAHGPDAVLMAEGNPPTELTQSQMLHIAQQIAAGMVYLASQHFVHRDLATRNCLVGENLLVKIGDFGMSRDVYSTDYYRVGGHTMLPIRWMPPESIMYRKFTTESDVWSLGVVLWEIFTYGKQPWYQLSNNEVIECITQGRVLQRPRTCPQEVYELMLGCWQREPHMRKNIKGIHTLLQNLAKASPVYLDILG
T3 sequence (Q16288 32-839, species assumed): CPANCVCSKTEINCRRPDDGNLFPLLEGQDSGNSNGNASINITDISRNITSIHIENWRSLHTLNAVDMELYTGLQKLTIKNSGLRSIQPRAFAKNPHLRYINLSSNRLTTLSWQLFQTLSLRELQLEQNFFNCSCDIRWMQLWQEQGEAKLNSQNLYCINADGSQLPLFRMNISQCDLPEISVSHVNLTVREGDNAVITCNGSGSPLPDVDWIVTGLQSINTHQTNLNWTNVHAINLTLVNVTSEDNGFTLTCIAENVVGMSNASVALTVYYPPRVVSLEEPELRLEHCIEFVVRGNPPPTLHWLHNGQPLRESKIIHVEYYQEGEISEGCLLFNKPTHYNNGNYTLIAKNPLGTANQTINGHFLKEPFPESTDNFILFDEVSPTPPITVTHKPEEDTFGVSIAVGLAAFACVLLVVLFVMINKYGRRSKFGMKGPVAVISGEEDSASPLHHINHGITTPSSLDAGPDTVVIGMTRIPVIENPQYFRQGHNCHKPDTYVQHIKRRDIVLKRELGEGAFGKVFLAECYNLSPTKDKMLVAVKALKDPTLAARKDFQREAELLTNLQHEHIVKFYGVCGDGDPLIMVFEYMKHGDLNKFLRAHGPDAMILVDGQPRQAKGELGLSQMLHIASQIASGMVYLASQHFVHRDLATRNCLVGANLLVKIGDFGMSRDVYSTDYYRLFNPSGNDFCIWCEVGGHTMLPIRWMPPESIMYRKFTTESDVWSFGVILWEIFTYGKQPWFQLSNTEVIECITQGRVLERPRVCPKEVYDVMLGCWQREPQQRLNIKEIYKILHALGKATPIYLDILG

Consider “NGF: prototypical neurotrophin, Nerve Growth Factor, obtained from Peprotech”, for which the “tyrosine phosphorylation of SHP-1” value in experiment [1] is recorded as “stimulates an increase in the tyrosine phosphorylation of SHP-1”. The “association of SHP-2 with tyrosine phosphorylated proteins” value in [2] is listed as “stimulates the association of SHP-2 with a number of tyrosine phosphorylated proteins”; in experiment [3] it was “SHP-2 could be seen to associate with at least five tyrosine phosphorylated proteins”.

With “SHP-1: nontransmembrane protein-tyrosine phosphatase containing SH2 domains, GenBank Accession Number M77273”, the “binding to activated Trk” value is “binds to activated (i.e. autophosphorylated) TrkA, TrkB and TrkC” in [4]; “binds to activated (i.e. autophosphorylated) TrkA, TrkB and TrkC” in [5]; “binds to activated (i.e. autophosphorylated) TrkA, TrkB and TrkC” in experiment [6]. For the same substance, in [7], the “dephosphorylation of Trk in vitro” value is “approximately 5 fold”. Moreover, the “dephosphorylation of Trk at the 674/675 sites” value in experiment [8] is recorded as “about 10 fold”. Besides, the “tyrosine phosphorylation of the Y490 site” value in experiment [8] (phospho-specific anti-Trk antibody) is reported as “decreased”. For the same substance, the “dephosphorylation of Trks, wild-type and mutated at tyrosines 490 and 785” value in experiment [9] is given as “about 8 fold”.

Take “SHP-2: nontransmembrane protein-tyrosine phosphatase containing SH2 domains, GenBank Accession Number L03535”: in experiment [4], the “binding to activated Trk” value is recorded as “unable to bind to Trk”. Also, the “dephosphorylation of Trk in vitro” value in experiment [7] is “approximately 5 fold”. In experiment [8], the “dephosphorylation of Trk at the 674/675 sites” value is “about 2 fold”. In experiment [9], the “dephosphorylation of Trks, wild-type and mutated at tyrosines 490 and 785” value is “about 2 fold”.
